The target in test [1] is T1, Escherichia coli tryptophan synthase beta subunit (βTS) (E. coli, UniProt P0A879 1-397).
T1 construct: tryptophan synthase beta subunit (βTS), E. coli; No removal of the hexahistidine tag is mentioned; also called beta subunit of TS; source: E. coli BL21 (DE3*), purified (Ni-NTA, S200 size exclusion)
T1 sequence (looked up): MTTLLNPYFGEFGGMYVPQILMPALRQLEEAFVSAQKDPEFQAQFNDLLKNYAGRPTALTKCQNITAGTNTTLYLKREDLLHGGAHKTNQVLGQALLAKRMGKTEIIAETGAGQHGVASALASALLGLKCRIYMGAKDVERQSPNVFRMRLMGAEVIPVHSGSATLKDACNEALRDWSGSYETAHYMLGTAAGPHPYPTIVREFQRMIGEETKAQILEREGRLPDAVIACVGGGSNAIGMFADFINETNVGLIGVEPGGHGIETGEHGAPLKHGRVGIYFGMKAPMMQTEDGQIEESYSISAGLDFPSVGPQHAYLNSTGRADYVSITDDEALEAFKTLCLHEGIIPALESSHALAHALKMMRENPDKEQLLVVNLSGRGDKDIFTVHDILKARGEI
Nature of the test: ITC; αTS subunit (WT or A198W) binding to the βTS subunit; which protein was titrated, buffer and temperature are not told in the main text (Supplementary Figure 5). To be noted: both partners purified.

Test [2] addresses T1, Escherichia coli tryptophan synthase …. As to the kind of experiment: cell-based or functional assay.
Test [3] has as its target T2, Escherichia coli tryptophan synthase alpha subunit (αTS), A198W variant (E. coli, UniProt P0A877 1-268, A198W).
T2 sequence: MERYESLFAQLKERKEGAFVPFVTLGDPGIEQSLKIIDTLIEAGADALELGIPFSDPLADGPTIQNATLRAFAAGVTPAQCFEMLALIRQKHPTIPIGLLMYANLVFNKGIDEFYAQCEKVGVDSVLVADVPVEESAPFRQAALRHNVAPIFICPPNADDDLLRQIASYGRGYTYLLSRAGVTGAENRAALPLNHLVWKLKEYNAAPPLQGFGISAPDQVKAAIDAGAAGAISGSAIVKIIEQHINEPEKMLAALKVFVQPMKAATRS
As to the kind of experiment: ITC.

Data on three molecules can be found in article PMC8187860, “Substitution of a Surface-Exposed Residue Involved in an Allosteric Network Enhances Tryptophan Synthase Function in Cells” (Frontiers in Molecular Biosciences, 2021).

B1: Escherichia coli tryptophan synthase alpha subunit (αTS), wild type (enzyme, E. coli, UniProt P0A877 1-268, looked up)
chain: MERYESLFAQLKERKEGAFVPFVTLGDPGIEQSLKIIDTLIEAGADALELGIPFSDPLADGPTIQNATLRAFAAGVTPAQCFEMLALIRQKHPTIPIGLLMYANLVFNKGIDEFYAQCEKVGVDSVLVADVPVEESAPFRQAALRHNVAPIFICPPNADDDLLRQIASYGRGYTYLLSRAGVTGAENRAALPLNHLVAKLKEYNAAPPLQGFGISAPDQVKAAIDAGAAGAISGSAIVKIIEQHINEPEKMLAALKVFVQPMKAATRS
notes: tryptophan synthase alpha subunit (αTS, product of trpA), E. coli; Axe et al., 2014) for the construct and its purification; also called WT αTS; WT; source: E. coli BL21 (DE3*), purified as previously (Axe and Boehr, 2013; Axe et al., 2014; O'Rourke et al., 2019
The molecule B1 gave a Kd in test [1] of roughly 25 nM.

B2: Escherichia coli tryptophan synthase alpha subunit (αTS), A198W variant (enzyme, E. coli, UniProt P0A877 1-268, looked up)
chain: MERYESLFAQLKERKEGAFVPFVTLGDPGIEQSLKIIDTLIEAGADALELGIPFSDPLADGPTIQNATLRAFAAGVTPAQCFEMLALIRQKHPTIPIGLLMYANLVFNKGIDEFYAQCEKVGVDSVLVADVPVEESAPFRQAALRHNVAPIFICPPNADDDLLRQIASYGRGYTYLLSRAGVTGAENRAALPLNHLVWKLKEYNAAPPLQGFGISAPDQVKAAIDAGAAGAISGSAIVKIIEQHINEPEKMLAALKVFVQPMKAATRS
notes: tryptophan synthase alpha subunit (αTS, product of trpA), E. coli, with the substitution A198W; Made by QuikChange site-directed mutagenesis of the wild-type αTS plasmid; also called A198W αTS; source: E. coli BL21 (DE3*), purified as previously (Axe and Boehr, 2013; Axe et al., 2014; O'Rourke et al., 2019)
In test [1], B2 registered a Kd of roughly 25 nM. Further, in test [2], the “kcat/KM of the full TS complex reaction (production of tryptophan from IGP, 290 nm; 50 µM α2β2 TS complex)” value was found to be 9900 M⁻¹ s⁻¹ and the “kcat/KM of the βTS assay in the presence of αTS (production of tryptophan from indole, 290 nm; 0.5 µM α2β2 TS complex)” value stood at 190000 M⁻¹ s⁻¹.

B3: Escherichia coli tryptophan synthase beta subunit (βTS) (enzyme)
chain: MTTLLNPYFGEFGGMYVPQILMPALRQLEEAFVSAQKDPEFQAQFNDLLKNYAGRPTALTKCQNITAGTNTTLYLKREDLLHGGAHKTNQVLGQALLAKRMGKTEIIAETGAGQHGVASALASALLGLKCRIYMGAKDVERQSPNVFRMRLMGAEVIPVHSGSATLKDACNEALRDWSGSYETAHYMLGTAAGPHPYPTIVREFQRMIGEETKAQILEREGRLPDAVIACVGGGSNAIGMFADFINETNVGLIGVEPGGHGIETGEHGAPLKHGRVGIYFGMKAPMMQTEDGQIEESYSISAGLDFPSVGPQHAYLNSTGRADYVSITDDEALEAFKTLCLHEGIIPALESSHALAHALKMMRENPDKEQLLVVNLSGRGDKDIFTVHDILKARGEI
Molecule B3 gave a Kd in test [3] of 28 nM.
